Where a chain is given by its changes, count along the chain named.
What was measured:
[1] = molecular target: T1, EIN3 82-352 (optimal DBD) (Arabidopsis thaliana, UniProt O24606 82-352); assay: EMSA; tighter than ERF1; EMSA: 1 nM biotin probe, 10 mM Tris-HCl pH 7.5, 40 mM KCl, 3 mM MgCl2, 1 mM EDTA, 10% glycerol, 1 mM DTT, 1 ug poly(dI-dC) in 20 uL, room temperature, 30 min; details: protein: recombinant; tags: N-terminal His6 (pET-28a); chain copies: 2; label: 3' biotin on forward strand; blunt
T1 sequence: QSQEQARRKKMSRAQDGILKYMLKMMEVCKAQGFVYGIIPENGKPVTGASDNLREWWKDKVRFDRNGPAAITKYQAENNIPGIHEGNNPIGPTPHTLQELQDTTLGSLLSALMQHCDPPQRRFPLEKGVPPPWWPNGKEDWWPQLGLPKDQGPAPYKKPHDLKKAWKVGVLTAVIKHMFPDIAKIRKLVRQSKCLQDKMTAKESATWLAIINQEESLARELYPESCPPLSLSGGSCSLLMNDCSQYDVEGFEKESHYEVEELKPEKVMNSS

[2] = molecular target: the molecule itself; assay: SEC-MALS; Superdex 200 analytical column, 1 ml/min, 10 mM Tris–HCl pH 7.5, 100 mM NaCl, 1 mM DTT, 4°C; no DNA
[3] = molecular target: T1, EIN3 82-352 (optimal DBD); assay: EMSA; EMSA: 1 nM biotin probe, 10 mM Tris-HCl pH 7.5, 40 mM KCl, 3 mM MgCl2, 1 mM EDTA, 10% glycerol, 1 mM DTT, 1 ug poly(dI-dC) in 20 uL, room temperature, 30 min; details: protein: recombinant, tags: N-terminal His6 (pET-28a), chain copies: 2
[4] = molecular target: T1, EIN3 82-352 (optimal DBD); assay: as above; details: protein: recombinant; tags: N-terminal His6 (pET-28a); chain copies: 2; label: 3' biotin on forward strand; blunt
EIN3 68-352 = molecular target: T2, EIN3 68-352 (Arabidopsis thaliana, UniProt O24606 68-352); assay: as above; details: protein: recombinant; tags: N-terminal His6 (pET-28a); chain copies: 2; label: 3' biotin on forward strand; blunt
T2 sequence: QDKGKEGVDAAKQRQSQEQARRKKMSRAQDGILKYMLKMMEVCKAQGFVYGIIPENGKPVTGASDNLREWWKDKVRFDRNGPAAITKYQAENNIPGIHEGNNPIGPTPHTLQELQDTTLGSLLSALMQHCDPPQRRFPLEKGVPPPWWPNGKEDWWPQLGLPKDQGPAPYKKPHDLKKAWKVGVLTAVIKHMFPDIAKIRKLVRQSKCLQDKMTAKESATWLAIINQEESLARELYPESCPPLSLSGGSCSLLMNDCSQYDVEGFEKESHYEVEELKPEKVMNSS

EIN3 91-352 = molecular target: T3, EIN3 91-352 (Arabidopsis thaliana, UniProt O24606 91-352); assay: as above; details: protein: recombinant; tags: N-terminal His6 (pET-28a); chain copies: 2; label: 3' biotin on forward strand; blunt
T3 sequence: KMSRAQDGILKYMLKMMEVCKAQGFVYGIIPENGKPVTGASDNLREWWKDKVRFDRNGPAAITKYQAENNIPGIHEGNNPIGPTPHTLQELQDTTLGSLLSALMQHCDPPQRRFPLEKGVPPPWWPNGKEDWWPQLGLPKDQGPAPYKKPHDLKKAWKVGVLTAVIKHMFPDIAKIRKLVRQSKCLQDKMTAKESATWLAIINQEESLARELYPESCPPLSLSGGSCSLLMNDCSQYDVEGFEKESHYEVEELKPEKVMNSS

EIN3 98-352 = molecular target: T4, EIN3 98-352 (Arabidopsis thaliana, UniProt O24606 98-352); assay: as above; details: protein: recombinant; tags: N-terminal His6 (pET-28a); chain copies: 2; label: 3' biotin on forward strand; blunt
T4 sequence: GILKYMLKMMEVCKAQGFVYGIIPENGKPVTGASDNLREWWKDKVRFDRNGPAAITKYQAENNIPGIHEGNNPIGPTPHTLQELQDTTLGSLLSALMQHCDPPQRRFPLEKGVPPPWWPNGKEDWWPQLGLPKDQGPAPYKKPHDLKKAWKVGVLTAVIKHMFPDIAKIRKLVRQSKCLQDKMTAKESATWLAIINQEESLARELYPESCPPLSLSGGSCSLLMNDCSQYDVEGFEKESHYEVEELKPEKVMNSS

EIN3 82-352 P216S = molecular target: T5, EIN3 82-352 P216S (Arabidopsis thaliana, UniProt O24606 82-352, P216S); assay: as above; details: protein: recombinant; tags: N-terminal His6 (pET-28a); chain copies: 2; label: 3' biotin on forward strand; blunt
T5 sequence: T1 sequence with P135S

EIN3 1-352 = molecular target: T6, EIN3 1-352 (Arabidopsis thaliana, UniProt O24606 1-352); assay: as above; details: protein: recombinant; tags: N-terminal His6 (pET-28a); chain copies: 2; label: 3' biotin on forward strand; blunt
T6 sequence: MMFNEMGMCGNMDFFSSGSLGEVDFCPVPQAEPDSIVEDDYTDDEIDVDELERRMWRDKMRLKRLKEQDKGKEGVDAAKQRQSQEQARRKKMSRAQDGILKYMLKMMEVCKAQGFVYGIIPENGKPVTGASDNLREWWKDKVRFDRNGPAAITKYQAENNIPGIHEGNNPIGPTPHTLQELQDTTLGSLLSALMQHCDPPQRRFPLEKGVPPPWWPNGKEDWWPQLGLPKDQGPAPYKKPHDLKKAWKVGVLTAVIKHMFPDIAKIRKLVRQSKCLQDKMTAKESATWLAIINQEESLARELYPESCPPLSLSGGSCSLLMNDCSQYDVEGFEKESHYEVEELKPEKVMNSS

[5] = label: 3' biotin on forward strand, blunt

B1: 2EBS-S10-36 (dsDNA)
DNA 1: TGAAGATACATGCAATTAAGCATGTATCTTGAATCC
DNA 2: GGATTCAAGATACATGCTTAATTGCATGTATCTTCA
[1]
  binding result: binds

B2: EIN3 82–352 (optimal DNA-binding domain of Arabidopsis ETHYLENE …3) (domain or fragment, UniProt O24606 82-352, looked up)
chain: T1 sequence
notes: numbering based on UniProt O24606; Cloned into NheI/BamHI of pET-28a; Printed predicted Mw: monomer 31.29 kDa, dimer 62.58 kDa; also called optimal DBD; EIN3 truncation 82–352; source: E. coli Transetta (DE3), purified (Ni-NTA, Superdex 75 size exclusion)
[2]
  stoichiometry N: 2

## AAGATACATGCAAAAAAGCATGTATCTT (ssDNA) [2EBS-S10-F]
[3]; label: 3' biotin, single strand
  binding result: no binding

B3: 2EBS-S10-R (dsDNA)
DNA 1: AAGATGTATGCAAAAAAGCATACATCTT
DNA 2: AAGATGTATGCTTTTTTGCATACATCTT
[3]; [5]
  Kd: ~1240 nM

B4: 0EBS-S10 (dsDNA)
DNA 1: AAGTCGATCGCAAAAAAGCGATCGACTT
DNA 2: AAGTCGATCGCTTTTTTGCGATCGACTT
[3]; [5]
  Kd: ~2280 nM

B5: 1EBS-S10 (dsDNA)
DNA 1: AAGATACATGCAAAAAAGCGATCGACTT
DNA 2: AAGTCGATCGCTTTTTTGCATGTATCTT
[3]; [5]
  Kd: ~690 nM

B6: 2EBS-S10-2 (dsDNA)
DNA 1: AAGGTACATGCAAAAAAGCATGTACCTT
DNA 2: AAGGTACATGCTTTTTTGCATGTACCTT
[3]; [5]
  binding result: binds

B7: 2EBS-S5 (dsDNA)
DNA 1: AAGATACATGCAGCATGTATCTT
DNA 2: AAGATACATGCTGCATGTATCTT
[4]
  binding signal: ~15 fold higher Kd than 2EBS-S10

B8: ERF1 (dsDNA)
DNA 1: GTTGTTTGGGATTCAAGGGGCATGTATCTTGAATCC
DNA 2: GGATTCAAGATACATGCCCCTTGAATCCCAAACAAC
EIN3 68-352
  binding result: binds
EIN3 91-352
  binding result: binds
EIN3 98-352
  binding result: binds
[3]; [5]
  binding result: binds
EIN3 82-352 P216S
  binding result: binds
EIN3 1-352
  binding result: binds

B9: 2EBS-S10 (dsDNA)
DNA 1: AAGATACATGCAAAAAAGCATGTATCTT
DNA 2: AAGATACATGCTTTTTTGCATGTATCTT
[3]; [5]
  Kd: ~110 nM

B10: 2EBS-S8 (dsDNA)
DNA 1: AAGATACATGCAAAAGCATGTATCTT
DNA 2: AAGATACATGCTTTTGCATGTATCTT
[4]
  binding signal: ~3 fold higher Kd than 2EBS-S10

From publication PMC4564277, “Biochemical and Structural Insights into the Mechanism of DNA Recognition by Arabidopsis [sequence] INSENSITIVE3” (PLoS ONE, 2015)
